Experimental findings from patent publication US11054425B2, “System and method for identification and characterization of transglutaminase species” (Roche Sequencing Solutions, Inc., priority 2014, dated 2021) are described below.

Data set [1] deals with KalbTG and S. mobaraensis MTG. Kind of data set: dual site-specific labeling with Cy3 and Cy5 labels. Format: biochemical. Particulars: KalbTG + Cy3 label 30 min, then S. mobaraensis MTG + Cy5 label 15 min. The protocol: Turning to FIG. 6C, the high sequence specificity of KalbTG was used to conjugate a 6 kDa Cy3 label to the YRYRQ (SEQ ID NO:1) site of a 7 kDa substrate peptide comprising both the KalbTG and S. mobaraensis MTG glutamine-containing motifs. The reaction was run for 30 minutes to saturate the YRYRQ (SEQ ID NO:1) site. Analysis by SDS-PAGE confirmed that the label was integrated at a single site. The substrate peptide was subsequently incubated for 15 minutes with S. mobaraensis MTG and a 6 kDa Cy5 label. […] Accordingly, KalbTG may be useful for the industrial-scale synthesis of complex protein conjugates of interest in therapeutic or diagnostic applications.
For the orthogonal labeling experiment, a molecule containing both KalbTG and MTG Q-tags was chemically synthesized to have the primary chemical structure:
(§1) If not noted otherwise, labeling reactions were performed for 15 minutes at 37° C. in the presence of 72 μM substrate protein, 720 μM label peptide and 1 μM transglutaminase in 200 mM MOPS pH 7.2 and 1 mM EDTA. […] Samples were taken between incubation steps and analyzed by SDS-PAGE, in-gel fluorescence (BioRad ChemiDoc gel documentation system, Cy3 and Cy5 LED and filter sets). […] The mixture was filtered (0.2 μm spin filter) and analyzed by LC-MS with UV detection at 214 nm and 305 nm.

For data set [2], the system named is Z-[GGGYRYRQGGGG (SEQ ID NO:75)]-OH. The experiment in a line: GLDH assay of transglutaminase enzyme activity after storage. It is filed as biochemical. The following applies: as measured by GLDH assay. The method, then:
A further experiment was performed to determine the activity of KalbTG enzymes prepared from two different constructs, and stored at two different temperatures. The KalbTGt3 (SEQ ID NO:10) and KalbTGt1 (SEQ ID NO: 12) enzymes tested were obtained respectively from the EcSlyD2-Xa-KalbTGt3-8×His-tag construct (SEQ ID NO:8) and the EcSlyD2-Xa-KalbTGt1-8×His-tag construct (SEQ ID NO:11) described in Example 3. The activity of the two KalbTG enzymes was tested after storage at either 4° C. or −20° C. and compared against the activity of commercially available S. mobaraensis MTG according to a published protocol (Oteng-Pabi, et al., 2013. Analytical biochemistry 441(2): 169-173). In particular, assays were performed at 37° C. in 200 μl total volume. The assay mixture included 200 mM MOPS, 1 mM EDTA, and 1 mM DTT at pH 7.4. Further, α-ketoglutarate and NADH were added at a concentration of 500 μM, along with 2 U/ml GLDH, and between 0.1 μg and 1.0 μg of one of the transglutaminase enzymes. The glutamine substrate was 200 μM Z-[[…] (SEQ ID NO:75)]-OH, and the amine donor was 10 mM cadaverine, where Z represents a carboxybenzyl group. All data were collected in triplicate (average of 3 wells in a microtiter plate) and baseline activity (buffer without enzyme) subtracted.

The subject of a further data set is KalbTG. The experiment in a line: Cy3 labeling of Q-tagged SlyD/FKBP scaffold, SDS-PAGE. It is filed as biochemical, Kutzneria albida. Particulars: 15 minute reaction, pH 6.2 to 9.0 tested.
Description: Next, the array and in-solution data were applied to perform site-specific labeling on protein substrates. The molecular chaperone SlyD is a useful scaffold for labeling approaches as epitope-containing loops can be grafted onto the FKBP domain for presentation to binders or enzymes (PCT App. Pub. No. WO 2012/150321 A1 to Andres et al.). A chimeric protein consisting of the Thermus thermophilus FKBP domain and the KalbTG recognition sequence RYRQR (SEQ ID NO:14) was produced. Labeling with a ten-fold excess of KalbTG K-tag-Cy3 and a substrate to enzyme ratio of 72:1 afforded approximately 70% yield of a labeled protein species after 15 minutes (FIG. 6A). This yield remained constant over a time-course of 60 minutes. […] The molecular weight shift from 13 kDa to 19 kDa was observed on the SDS-PAGE gel, corresponding exactly to the incorporation of a single 6 kDa label molecule. […]
as §1

Data set [3] in a line: differential scanning calorimetry (DSC). The following applies: purified and activated enzyme. Format: physicochemical. The protocol:
Initial screening at the 5 ml scale provided clear evidence that proteins with the anticipated electrophoretic mobility of full length KalbTG fusions were expressed, and that a fusion with tandem SlyD chaperones (Scholz, et al. 2005. Journal of Molecular Biology 345(5): 1229-1241) yielded the highest amount of soluble protein among all the constructs tested (FIG. 3A). The expression of this construct was further optimized by screening different incubation times and temperatures, Isopropyl β-D-1-thiogalactopyranoside (IPTG) inducer concentrations and induction times, media types and volumes. With reference to FIGS. 3B and 3C, the modular nature of the chosen fusion construct afforded the SlyD fusion protein, the pro-enzyme, and the activated enzyme by a combination of sequential purification and proteolytic cleavage steps. The expression construct 200 included, starting from N-terminus, two sequential SlyD chaperones 202, a factor Xa protease cleavage site (C1), the KalbTG pro-peptide 204, a trypsin protease cleavage site (C2) the KalbTG enzyme 206, and an 8×-histidine tag 208. The SlyD chaperones 202 are cleaved from the expression construct 200 with a factor Xa protease 210. […] The melting point of the purified and activated enzyme was determined to be 48.9° C. using differential scanning calorimetry (DSC). […]

As for “Z-[GGGYRYRQGGG (SEQ ID NO: 101)]-PEG27-[GIEGRG (SEQ ID NO: 102)]-PEG27-PEG27-[GGGDYALQGG (SEQ ID NO: 103)]-OH”, in data set [1], the “yield of dually labeled construct” value is on record as “nearly quantitative yield”.

B1: KalbTG: Kutzneria albida microbial transglutaminase (protein)
chain: MHKWFLRAAVVAAVGFGLPTLIATTAQAAAVAAPTPRAPLAPPLAEDRSYRTWRVEDYVEAWERYHGREMTEDERENLARGCIGVTVVNLNREDLSNPPLNLSFGSLRTAEAVQAALNKIVDTHPSPAQYEAAVAKDPILKRLKNVVKALPSWIDSAKLKASIFSKRFYSWQNPDWSEERAHTTYRPDRETDQVDMSTYRYRARPGYVNFDYGWFDQDTNTWWHANHEEPRMVVYQSTLRHYSRPLQDFDEQVFTVAFAKKD
modifications: Hypothetical_transglutaminase
notes: Kutzneria albida microbial transglutaminase
In the case of B1, in data set [2], the “increase in KalbTG enzymatic activity by purification process with ammonium chloride” value is reported as “up to 9 fold”. The “pH of highest labeling efficiency” value with KalbTG is reported as 7.4. Besides, in data set [3], the “melting point (DSC)” value came to 48.9 °C.
